Assay results taken from patent US20030068675, “Position dependent recognition of GNN nucleotide triplets by zinc fingers” (published 2003).

Columns and labels:
Assay in all cases: EMSA
Settings in all cases: tags: MBP fusion
ZFP SBS#1205 = ZFP SBS#1205 (synthetic)
Outline: (§1)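 Purified ZFP was titrated against labeled double-stranded target (1 nM or lower, at least 10-fold below expected Kd) carrying the natural binding site with flanks. Binding buffer was 10 mM Tris pH 7.5, 100 mM KCl, 1 mM MgCl2, 0.1 mM ZnCl2, 5 mM DTT, 10% glycerol, 0.02% BSA, with equilibration for at least 45 min. Bound and free target were separated on a 10% polyacrylamide gel.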

ZFP SBS#1104 = target: T1, ZFP SBS#1104 (synthetic)
T1 chain: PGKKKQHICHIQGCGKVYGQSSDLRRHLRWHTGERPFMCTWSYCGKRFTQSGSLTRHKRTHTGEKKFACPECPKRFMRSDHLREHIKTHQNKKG
Outline: as §1

ZFP SBS#1186 = target: T2, ZFP SBS#1186 (synthetic)
T2 chain: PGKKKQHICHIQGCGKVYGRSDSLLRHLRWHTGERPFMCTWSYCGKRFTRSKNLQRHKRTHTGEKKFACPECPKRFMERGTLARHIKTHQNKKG
Outline: as §1

ZFP SBS#1180 = ZFP SBS#1180 (synthetic)
Outline: as §1

ZFP SBS#1185 = target: T3, ZFP SBS#1185 (synthetic)
T3 chain: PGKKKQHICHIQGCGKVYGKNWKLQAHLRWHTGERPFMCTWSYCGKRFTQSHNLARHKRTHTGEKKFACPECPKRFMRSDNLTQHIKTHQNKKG
Outline: as §1

ZFP SBS#1184 = target: T4, ZFP SBS#1184 (synthetic)
T4 chain: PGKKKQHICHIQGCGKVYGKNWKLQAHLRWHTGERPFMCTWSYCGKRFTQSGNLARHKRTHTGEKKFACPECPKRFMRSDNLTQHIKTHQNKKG
Outline: as §1

ZFP SBS#479 = target: T5, ZFP SBS#479 (synthetic, UniProt P08047)
T5 chain: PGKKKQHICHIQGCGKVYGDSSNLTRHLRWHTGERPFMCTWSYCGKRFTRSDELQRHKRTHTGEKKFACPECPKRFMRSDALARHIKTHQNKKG
Outline: as §1

ZFP SBS#480 = target: T6, ZFP SBS#480 (synthetic)
T6 chain: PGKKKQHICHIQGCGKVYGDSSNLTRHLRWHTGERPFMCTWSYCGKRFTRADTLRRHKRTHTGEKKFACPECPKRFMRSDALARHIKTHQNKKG
Outline: as §1

ZFP SBS#1178 = target: T7, ZFP SBS#1178 (synthetic)
T7 chain: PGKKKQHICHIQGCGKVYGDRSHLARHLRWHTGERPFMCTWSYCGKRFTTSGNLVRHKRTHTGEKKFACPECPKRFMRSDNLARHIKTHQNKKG
Outline: as §1

ZFP SBS#1181 = target: T8, ZFP SBS#1181 (synthetic)
T8 chain: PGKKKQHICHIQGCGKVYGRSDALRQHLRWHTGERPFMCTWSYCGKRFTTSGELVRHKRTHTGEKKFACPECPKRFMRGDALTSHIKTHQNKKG
Outline: as §1

ZFP SBS#1126 = target: T9, ZFP SBS#1126 (synthetic)
T9 chain: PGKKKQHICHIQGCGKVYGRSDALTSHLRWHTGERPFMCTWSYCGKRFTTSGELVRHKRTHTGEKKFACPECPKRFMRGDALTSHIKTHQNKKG
Outline: as §1

ZFP SBS#1190 = ZFP SBS#1190 (synthetic)
Outline: as §1

ZFP SBS#1193 = target: T10, ZFP SBS#1193 (synthetic)
T10 chain: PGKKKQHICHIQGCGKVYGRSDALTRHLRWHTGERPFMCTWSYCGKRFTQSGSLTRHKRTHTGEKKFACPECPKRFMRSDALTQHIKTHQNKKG
Outline: as §1

ZFP SBS#1192 = ZFP SBS#1192 (synthetic)
Outline: as §1

ZFP SBS#1191 = target: T11, ZFP SBS#1191 (synthetic)
T11 chain: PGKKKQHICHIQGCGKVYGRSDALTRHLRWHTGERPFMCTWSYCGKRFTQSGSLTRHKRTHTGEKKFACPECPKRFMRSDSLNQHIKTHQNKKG
Outline: as §1

ZFP SBS#1197 = target: T12, ZFP SBS#1197 (synthetic)
T12 chain: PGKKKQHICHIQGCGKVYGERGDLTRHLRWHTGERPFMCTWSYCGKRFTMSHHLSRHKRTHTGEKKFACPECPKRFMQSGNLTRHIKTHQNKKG
Outline: as §1

ZFP SBS#1187 = target: T13, ZFP SBS#1187 (synthetic, UniProt P08047)
T13 chain: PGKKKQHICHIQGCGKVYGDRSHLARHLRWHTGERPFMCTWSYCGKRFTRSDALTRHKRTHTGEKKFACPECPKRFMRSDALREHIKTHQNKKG
Outline: as §1

ZFP SBS#1107 = ZFP SBS#1107 (synthetic)
Outline: as §1

ZFP SBS#1206 = ZFP SBS#1206 (synthetic)
Outline: as §1

ZFP SBS#1202 = target: T14, ZFP SBS#1202 (synthetic, UniProt P08047)
T14 chain: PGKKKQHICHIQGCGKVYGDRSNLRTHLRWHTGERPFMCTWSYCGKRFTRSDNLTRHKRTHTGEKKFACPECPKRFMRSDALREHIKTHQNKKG
Outline: as §1

ZFP SBS#1182 = ZFP SBS#1182 (synthetic)
Outline: as §1

ZFP SBS#1183 = target: T15, ZFP SBS#1183 (synthetic)
T15 chain: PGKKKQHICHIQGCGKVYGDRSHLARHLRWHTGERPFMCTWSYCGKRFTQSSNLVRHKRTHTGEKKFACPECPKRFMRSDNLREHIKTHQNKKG
Outline: as §1

ZFP SBS#483 = ZFP SBS#483 (synthetic)
Outline: as §1

ZFP SBS#1195 = target: T16, ZFP SBS#1195 (synthetic)
T16 chain: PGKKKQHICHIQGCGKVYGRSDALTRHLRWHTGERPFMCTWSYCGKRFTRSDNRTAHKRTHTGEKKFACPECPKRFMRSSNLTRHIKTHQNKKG
Outline: as §1

ZFP SBS#1194 = target: T17, ZFP SBS#1194 (synthetic)
T17 chain: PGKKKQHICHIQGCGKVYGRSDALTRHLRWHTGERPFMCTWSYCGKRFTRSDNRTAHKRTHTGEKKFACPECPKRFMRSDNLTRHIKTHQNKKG
Outline: as §1

ZFP SBS#1157 = target: T18, ZFP SBS#1157 (synthetic)
T18 chain: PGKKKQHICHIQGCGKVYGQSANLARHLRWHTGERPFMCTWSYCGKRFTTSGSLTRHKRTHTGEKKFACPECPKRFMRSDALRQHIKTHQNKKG
Outline: as §1

ZFP SBS#1189 = target: T19, ZFP SBS#1189 (synthetic)
T19 chain: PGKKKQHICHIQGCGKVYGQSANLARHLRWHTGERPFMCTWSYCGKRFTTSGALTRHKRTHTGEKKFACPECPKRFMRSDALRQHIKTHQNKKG
Outline: as §1

ZFP SBS#1156 = target: T20, ZFP SBS#1156 (synthetic)
T20 chain: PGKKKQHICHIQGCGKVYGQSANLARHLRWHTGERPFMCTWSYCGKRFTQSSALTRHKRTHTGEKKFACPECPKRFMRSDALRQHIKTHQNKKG
Outline: as §1

ZFP SBS#1151 = ZFP SBS#1151 (synthetic)
Outline: as §1

ZFP SBS#1188 = ZFP SBS#1188 (synthetic)
Outline: as §1

ZFP SBS#1201 = target: T21, ZFP SBS#1201 (synthetic)
T21 chain: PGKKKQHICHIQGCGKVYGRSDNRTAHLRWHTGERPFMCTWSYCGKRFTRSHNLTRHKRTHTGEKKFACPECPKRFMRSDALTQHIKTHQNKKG
Outline: as §1

ZFP SBS#1200 = target: T22, ZFP SBS#1200 (synthetic)
T22 chain: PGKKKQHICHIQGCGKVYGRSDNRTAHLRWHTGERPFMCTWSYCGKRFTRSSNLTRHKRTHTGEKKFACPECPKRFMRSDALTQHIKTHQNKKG
Outline: as §1

ZFP SBS#1199 = target: T23, ZFP SBS#1199 (synthetic)
T23 chain: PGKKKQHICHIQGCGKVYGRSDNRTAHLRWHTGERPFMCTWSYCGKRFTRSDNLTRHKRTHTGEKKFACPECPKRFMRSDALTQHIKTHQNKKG
Outline: as §1

ZFP SBS#1203 = ZFP SBS#1203 (synthetic)
Outline: as §1

ZFP SBS#1204 = ZFP SBS#1204 (synthetic)
Outline: as §1

ZFP SBS#1188 (synthetic), sequence (chain, as listed by the source): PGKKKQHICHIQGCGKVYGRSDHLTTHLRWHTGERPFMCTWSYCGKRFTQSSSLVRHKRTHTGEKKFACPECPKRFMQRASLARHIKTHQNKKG
ZFP SBS#483 (synthetic), sequence (chain, as listed by the source): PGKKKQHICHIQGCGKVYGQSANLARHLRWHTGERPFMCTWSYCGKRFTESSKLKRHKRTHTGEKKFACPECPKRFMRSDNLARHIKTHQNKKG
ZFP SBS#1151 (synthetic), sequence (chain, as listed by the source): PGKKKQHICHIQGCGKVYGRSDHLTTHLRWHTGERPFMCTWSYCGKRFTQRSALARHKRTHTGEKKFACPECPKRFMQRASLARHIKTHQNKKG
ZFP SBS#1205 (synthetic), sequence (chain, as listed by the source): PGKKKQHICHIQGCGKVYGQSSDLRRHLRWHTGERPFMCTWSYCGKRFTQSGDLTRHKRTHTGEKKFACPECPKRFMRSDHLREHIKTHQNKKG
ZFP SBS#1204 (synthetic), sequence (chain, as listed by the source): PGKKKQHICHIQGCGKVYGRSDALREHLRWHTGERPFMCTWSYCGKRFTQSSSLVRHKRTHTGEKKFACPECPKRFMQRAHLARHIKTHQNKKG
ZFP SBS#1206 (synthetic), sequence (chain, as listed by the source): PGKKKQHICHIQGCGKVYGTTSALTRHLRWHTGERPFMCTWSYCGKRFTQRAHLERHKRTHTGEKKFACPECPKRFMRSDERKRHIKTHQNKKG
ZFP SBS#1190 (synthetic), sequence (chain, as listed by the source): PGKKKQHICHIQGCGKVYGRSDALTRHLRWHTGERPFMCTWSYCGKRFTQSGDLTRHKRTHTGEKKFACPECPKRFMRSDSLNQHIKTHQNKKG
ZFP SBS#1192 (synthetic), sequence (chain, as listed by the source): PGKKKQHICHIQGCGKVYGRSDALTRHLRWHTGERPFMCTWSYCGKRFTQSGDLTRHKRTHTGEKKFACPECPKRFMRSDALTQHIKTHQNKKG
ZFP SBS#1180 (synthetic), sequence (chain, as listed by the source): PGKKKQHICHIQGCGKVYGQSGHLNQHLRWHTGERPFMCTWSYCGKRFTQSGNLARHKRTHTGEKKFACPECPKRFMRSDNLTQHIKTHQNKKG

B1: CGGGCAGCT (dsDNA)
DNA 1: CGGGCAGCT
DNA 2: AGCTGCCCG
ZFP SBS#1205
  Kd: 0.9 nM
ZFP SBS#1104
  Kd: 0.08 nM

B2: GCCGAGGTG (dsDNA)
DNA 1: GCCGAGGTG
DNA 2: CACCTCGGC
ZFP SBS#1186
  Kd: 27.5 nM

B3: AAGGAAAGA (dsDNA)
DNA 1: AAGGAAAGA
DNA 2: TCTTTCCTT
ZFP SBS#1180
  Kd: 4.83 nM
ZFP SBS#1185
  Kd: 5.25 nM
ZFP SBS#1184
  Kd: 2.79 nM

B4: GTGGCGGACC (dsDNA)
DNA 1: GTGGCGGACC
DNA 2: GGTCCGCCAC
ZFP SBS#479
  Kd: 8.5 nM
ZFP SBS#480
  Kd: 5 nM

B5: GAGGATGGC (dsDNA)
DNA 1: GAGGATGGC
DNA 2: GCCATCCTC
ZFP SBS#1178
  Kd: 0.085 nM

B6: TTGGCTATG (dsDNA)
DNA 1: TTGGCTATG
DNA 2: CATAGCCAA
ZFP SBS#1181
  Kd: 8.2 nM
ZFP SBS#1126
  Kd: 0.46 nM

B7: ATGGCAGTG (dsDNA)
DNA 1: ATGGCAGTG
DNA 2: CACTGCCAT
ZFP SBS#1190
  Kd: 1.48 nM
ZFP SBS#1193
  Kd: 3.12 nM
ZFP SBS#1192
  Kd: 2.36 nM
ZFP SBS#1191
  Kd: 5.33 nM

B8: GAAGGTGCC (dsDNA)
DNA 1: GAAGGTGCC
DNA 2: GGCACCTTC
ZFP SBS#1197
  Kd: 14.8 nM

B9: CTGGTGGGC (dsDNA)
DNA 1: CTGGTGGGC
DNA 2: GCCCACCAG
ZFP SBS#1187
  Kd: 0.006 nM

B10: GCGGGAGTT (dsDNA)
DNA 1: GCGGGAGTT
DNA 2: AACTCCCGC
ZFP SBS#1107
  Kd: 0.06 nM
ZFP SBS#1206
  Kd: 0.034 nM

B11: CTGGAGTAC (dsDNA)
DNA 1: CTGGAGTAC
DNA 2: GTACTCCAG
ZFP SBS#1202
  Kd: 2.83 nM

B12: CAGGAAGGC (dsDNA)
DNA 1: CAGGAAGGC
DNA 2: GCCTTCCTG
ZFP SBS#1182
  Kd: 1.48 nM
ZFP SBS#1183
  Kd: 1.94 nM

B13: GAGGGCGAAG (dsDNA)
DNA 1: GAGGGCGAAG
DNA 2: CTTCGCCCTC
ZFP SBS#483
  Kd: 130 nM

B14: GAGAAGGTG (dsDNA)
DNA 1: GAGAAGGTG
DNA 2: CACCTTCTC
ZFP SBS#1195
  Kd: 2.8 nM
ZFP SBS#1194
  Kd: 2.19 nM

B15: ATGGTTGAA (dsDNA)
DNA 1: ATGGTTGAA
DNA 2: TTCAACCAT
ZFP SBS#1157
  Kd: 0.885 nM
ZFP SBS#1189
  Kd: 1.51 nM
ZFP SBS#1156
  Kd: 7.2 nM

B16: GTAGTATGG (dsDNA)
DNA 1: GTAGTATGG
DNA 2: CCATACTAC
ZFP SBS#1151
  Kd: 1.63 nM
ZFP SBS#1188
  Kd: 2.74 nM

B17: ATGGAGAAG (dsDNA)
DNA 1: ATGGAGAAG
DNA 2: CTTCTCCAT
ZFP SBS#1201
  Kd: 14.8 nM
ZFP SBS#1200
  Kd: 16.9 nM
ZFP SBS#1199
  Kd: 3.43 nM

B18: GGAGTACTG (dsDNA)
DNA 1: GGAGTACTG
DNA 2: CAGTACTCC
ZFP SBS#1203
  Kd: 2.94 nM
ZFP SBS#1204
  Kd: 4.38 nM
